Where two headings read alike, the source gives them in different places. Marks after values point to notes of the source that are not given here.
Assays:
[1] = system: SARS-CoV-2; type: cell-based
[2] = system: Vero cells (Monkey Kidney Epithelial Cells); conditions: Vero cells

B1: lactoferrin (protein, UniProt P24627 20-708, looked up)
Lactotransferrin: APRKNVRWCTISQPEWFKCRRWQWRMKKLGAPSITCVRRAFALECIRAIAEKKADAVTLDGGMVFEAGRDPYKLRPVAAEIYGTKESPQTHYYAVAVVKKGSNFQLDQLQGRKSCHTGLGRSAGWIIPMGILRPYLSWTESLEPLQGAVAKFFSASCVPCIDRQAYPNLCQLCKGEGENQCACSSREPYFGYSGAFKCLQDGAGDVAFVKETTVFENLPEKADRDQYELLCLNNSRAPVDAFKECHLAQVPSHAVVARSVDGKEDLIWKLLSKAQEKFGKNKSRSFQLFGSPPGQRDLLFKDSALGFLRIPSKVDSALYLGSRYLTTLKNLRETAEEVKARYTRVVWCAVGPEEQKKCQQWSQQSGQNVTCATASTTDDCIVLVLKGEADALNLDGGYIYTAGKCGLVPVLAENRKSSKHSSLDCVLRPTEGYLAVAVVKKANEGLTWNSLKDKKSCHTAVDRTAGWNIPMGLIVNQTGSCAFDEFFSQSCAPGADPKSRLCALCAGDDQGLDKCVPNSKEKYYGYTGAFRCLAEDVGDVAFVKNDTVWENTNGESTADWAKNLNREDFRLLCLDGTRKPVTEAQSCHLAVAPNHAVVSRSDRAAHVKQVLLHQQALFGKNGKNCPDKFCLFKSETKNLLFNDNTECLAKLGGRPTYEEYLGTEYVTAIANLKKCSTSPLLEACAFLTR
notes: multifunctional globular protein of the transferrin family, 80 KDa
Mean ΔCt ([1]; 0.59 mg/ml, scheme A (preincubation of virus with compound)): 0.23 | Mean ΔCt ([1]; 0.59 mg/ml, scheme B+C (during and after inoculum)): 0.04 | Mean ΔCt ([1]; 0.59 mg/ml, scheme B+C+D (during, after inoculum and repeated)): −0.25 | Mean ΔCt ([1]; 1.17 mg/ml, scheme A (preincubation of virus with compound)): 0.76 | Mean ΔCt ([1]; 1.17 mg/ml, scheme B+C (during and after inoculum)): −0.08 | Mean ΔCt ([1]; 1.17 mg/ml, scheme B+C+D (during, after inoculum and repeated)): −0.21 | Mean ΔCt ([1]; 2.34 mg/ml, scheme A (preincubation of virus with compound)): 0.42 | Mean ΔCt ([1]; 2.34 mg/ml, scheme B+C (during and after inoculum)): −0.28 | Mean ΔCt ([1]; 2.34 mg/ml, scheme B+C+D (during, after inoculum and repeated)): −0.47 | Mean ΔCt ([1]; 4.68 mg/ml, scheme A (preincubation of virus with compound)): 0.25 | Mean ΔCt ([1]; 4.68 mg/ml, scheme B+C (during and after inoculum)): −1.52 | Mean ΔCt ([1]; 4.68 mg/ml, scheme B+C+D (during, after inoculum and repeated)): −2.47 | CC10 ([2]; 72 h, MTT): >4.68§ mg/ml | CC50 ([2]; 72 h, MTT): >4.68§ mg/ml | maximum nontoxic concentration (assumed) ([2]; based on CC50/CC10 data): 4.68 mg/mL

From patent US20230270828A1, “COMPOSITION FOR USE IN THE TREATMENT OF VIRAL INFECTIONS” (BICT S.R.L., priority 2020, published 2023)
